Results: patent EP3244212A1

Assays:
[1] = biological target: serum sIgE of the patients of the ELISA inhibition study (Example 3) (human); experiment: ELISA inhibition: serum pre-incubated with soluble Ara h 2 (0.1, 1, 10 ug/ml); immobilised competitor Ara h 6
[2] = biological target: serum sIgE of the patients of the ELISA inhibition study (Example 3) (human); experiment: ELISA inhibition: serum pre-incubated with soluble Ara h 2 (0.1, 1, 10 ug/ml); immobilised competitor Ara h 7.0201

B1: Ara h 2 isotype 2.0201, recombinant His6 fusion protein (protein)
chain: MSHHHHHHIEGRTMRQQWELQGDRRCQSQLERANLRPCEQHLMQKIQRDEDSYGRDPYSPSQDPYSPSQDPDRRDPYSPSPYDRRGAGSSQHQERCCNELNEFENNQRCMCEALQQIMENQSDRLQGRQQEQQFKRELRNLPQQCGLRAPQRCDLEVESGGRDRY
[1]
  % inhibition (median over sera): 43%
[2]
  % inhibition (median over sera): 16%
